For 2 molecules, Kd results are on record in article PMC11288887 (2024).

In general, Kd refers to the constant that tells how readily two partners part at equilibrium. Higher therefore signals lower affinity.

No end group written: not given here.

Among the targets are (DLP)6 binder; (DLS)6 binder; (KLP)6 binder.
Holding throughout (experiment): FP

As to tetramethylrhodamine-KLPKLPKLPKLPKLPKLP [(KLP)6], the figures for the Kd with (DLP)6 binder and with (DLS)6 binder were around 1000 nM and around 1800 nM, respectively.
As for tetramethylrhodamine-DLPDLPDLPDLPDLPDLP [(DLP)6], the Kd with (KLP)6 binder is 4.6 nM; with (DLS)6 binder, 0.7 nM.
